Test results: the DeepSol protein solubility set

Test: soluble on expression in E. coli; label from the status in PepcDB or PDB records

| Sequence | soluble on expression in E. coli |
| --- | --- |
| MGSDKIHHHHHHMQFTINHRTHYLYTDVVNYTIQKLRLTPQDGFGQRVKRWEIRVNGHLQRHDDAYGNAEHLLVLDTPHEEINILATGEVETGLDTPPAHDLLPREIYLRTTALTATDATLRNFAEQFRYDRFTGQILDEMMHAIVDKVPYYRGVTNVNTPAAEAFRSGHGVCQDHAHIFIACCRYLGIPARYVSGYLFTDDGSLMESHAWADACLPSGWISFDVSNRCRTNGVHVRLATGLDYSDACPVSGMRVGGGLETMTVGVHVSQLQSQQ | not soluble |
| MTKTLPKDFIFGGATAAYQAEGATHTDGKGPVAWDKYLEDNYWYTAEPASDFYHKYPVDLELAEEYGVNGIRISIAWSRIFPTGYGEVNEKGVEFYHKLFAECHKRHVEPFVTLHHFDTPEALHSNGDFLNRENIEHFIDYAAFCFEEFPEVNYWTTFNEIGPIGDGQYLVGKFPPGIKYDLAKVFQSHHNMMVSHARAVKLYKDKGYKGEIGVVHALPTKYPYDPENPADVRAAELEDIIHNKFILDATYLGHYSDKTMEGVNHILAENGGELDLRDEDFQALDAAKDLNDFLGINYYMSDWMQAFDGETEIIHNGKGEKGSSKYQIKGVGRRVAPDYVPRTDWDWIIYPEGLYDQIMRVKNDYPNYKKIYITCNGLGYKDEFVDNTVYDDGRIDYVKQHLEVLSDAIADGANVKGYFIWSLMDVFSWSNGYEKRYGLFYVDFDTQERYPKKSAHWYKKLAETQVIE | soluble |
| MAGDPMITVVGVRFKKAGKIYYFSPGDLNINKGDDVIVETARGIEYGNCVIGLKQVGEESIVSPLKSVIRVATDEDEIKYRENKNKEKEAFNICLSKIKKHELVMKLIDVEYTFDNNKIIFYFTAEGRVDFRELVKDLASVFRTRIELRQIGVRDEAKMIGGFGVCGRPMCCALYLGDFAPVSIKMAKEQNLSLNPSKISGVCGRLMCCLNYEQETYETIRKRMPKVGSIVSTKEYGKAEVVDNNIIKEAVKIKFTAEDGESISEAEVHIKDLKLISGSYEGNVDESQIKLELEDVDAKEVKELFKTDLEHHHHHH | not soluble |
| SLMKQIKHFNQNYQELRQLGKVAIGRRAGKLKAGTIILFAVDSQGKILAARKMQGVTVLAKFHPLPQYVNEDIHYMDHYHPLVQKENKLTQQAMENAREIYLRVELGNYQETQPLTPLNGAKIQWQLWKNKVQTKLKGSVE | soluble |
| MAHHHHHHMRGCLHFTRVARHKRHDKGGNAHNFAFDTLTKVYRDAVYLPQEKYRRGLMHPERSPGAPPSQAALVAPSSSSDVTNHVGNIGVMSSVATKLSDWMEQQPHHQTKHHTNGGGGTGHASATASCATPIARRSVASSSPSPAPSAAAATTDESHVDDEAIRRRLRAHLFSDKIQPGQPRTPPSTPVATASASPRRSGVQAEILSVYRSMLREVSRMQDADTRRSLSAYIRQEYDKQCDIPRKNIMKIEWRLNYGKRKLEELQAMSKHTKFTMMR | not soluble |
| MGSDKIHHHHHHMTVLHSVDFFPSGKAPVAIEPRLPQAAFPEHHHDFHEIVIVEHGTGIHVFNGQPYTISGGTVCFVRDHDRHLYEHTDNLCLTNVLWRSPDAFQFLAGLDQLLPQEQDGYYPSHWRVNQSVLQQVRQLVGLMERAGDGMDAPAVANREILFMQLLVLLRRSSLMEGATNNDAKLNQLMAWLEDHFAEEVCWEAVAEQFSLSLRTLHRQLKQHTGLTPQRYLNRLRLIKARHLLRHSDHSVTEIAYRCGFGDSNHFSTLFRREFNWSPRDIRQGRDAIIQ | not soluble |
| MCMMSHNKAFFLSLQHAAVSGVAVCLSVRRGAGSVPAGNRGKKTIITEYRITGTRALARCPTKPVTSMWNSSWTSRLEHHHHHH | not soluble |
| MAKSSERFESLRRDIDALARRLDVPSVLIMRSLPRHMRVEASAGRLEDTYPIGAEGRKSVHEDGAKPLYCERVVDRDAPLHVRDSRQETEWAGNEDEVEFGLSNYLGYPVHAPDGTPYGTVCVLDSRPRDYSAEERALLEELRRKVEALLAETVS | not soluble |
| MYFIAGMFDGKEKVNREQPPMPTTDGVEYPRAASWAAGNCANVLNDDKGKQLFRVFLFQSLAEENLAFLEAMEKLKKMKISDEKVAYAKEILETYQGSINLSSSSMKSLRNAVASETLDMEEFAPAIKEVRRLLENDQFPRFRRSELYLEYLEELLPRSYAEKWAQSFEGLLGNHVGRHHFRIFLRSIHAEENLRFWEAVVEFRSSRHKANAMNNLGKVILSTYLAEGTTNEVFLPFGVRQVIERRIQDNQIDITLFDEAIKHVEQVLRNDPYVRFLQSSQYIDLLSKLK | not soluble |
| MHHHHHHSSGVDLGTENLYFQSMNLPEHWTDMNHQLFCMVQLEPGQSEYNTIKDKFTRTCSSYAIEKIERIQNAFLWQSYQVKKRQMDIKNDHKNNERLLFHGTDADSVPYVNQHGFNRSCAGKNAVSYGKGTYFAVDASYSAKDTYSKPDSNGRKHMYVVRVLTGVFTKGRAGLVTPPPKNPHNPTDLFDSVTNNTRSPKLFVVFFDNQAYPEYLITFTA | soluble |
| MGSDKIHHHHHHMEIKKFIENYREAFGEYAELPIVFWYSDILENETGKVNGCFFKSMSKVRGGNTISLNAETIGCGGGKFYTGFTDMPEHVPTFVSLKERYKQTPEMVKSFIEQLGVPRAEKEYLHFARIDKVETFDHLEGILFLANPDILSGLTTWAFFDNNKEDTVISTFGSGCSSVVTQTILENRKGGYRTFIGFFDPSVRPYFEADILSYTIPMSRFKVMYETMRSSCLFDTHAWGKIRERNHNSYKE | not soluble |
| MAHHHHHHMSVATEMKVEEGIHLCGDQEFKLEDISSCVSEIFEKKKKYENIPFIQVAPMINVTNRHFRALVRTITRRAQVWTEMIVDNTLLYNLNNLEEHLGFNSNEHPIVCQLGGSDATSLAEAAVLVEQAGYDEINLNVGCPSTKVANKGAFGAYLMKKPEHVRNIVYEIKRKVHIPVSVKIRTGVDDCDSFPFLRSFVECISSVGCSHFIVHARKAWLKGLDPKQNRSVPPLEYPKVYSLCQLYPHLKFTLNGGVKTVEEAVALLNGYLPKKGNVDSEKTYVQVKNYQVNPLHGVMLGRACMENTTVLSQTDQLVYNEKPPHTAFSRRTVLDAYKSYLEENSSLCSLSSAFELLKPVLGILKGMPGHRIFRNKLDMYIRNYASTLPCSGILEKAMVDVDAVAPGCLDLPLADYKLQQEYIKNY | not soluble |
| MCPRTSCRFYPFTIDFGTFRMAIIHAKSMTIPTSKLVAFSDKFLQNLRCFNCAVMDIVKNDATLPLGHLEEYTPGNRIGNWIGPVKGINIPSHLKADFRKSQPLSITRSVREAEWCTPFINCTQYYICINHLFAERIATKLRQVMGHTMISNCVSLLYLTGDFRRSSRFSGPIESANITSNLEEHCWHSIVLDFFDFICINSMRAIIEGKYQCFRRFITKYLMFAFFNWYRISFENSIIMQNHFTCVRTTQMRHVVIPLFTLNKDSSITIKRNRPSNFLIVVALNLICLEHHHHHH | not soluble |
| MKAPAFTEAKLQDPIPAKIYDKNGELVKTLDNGQRHEHVNLKDVPKSMKDAVLATEDNRFYEHGALDYKRLFGAIGKNLTGGFGSEGASTLTQQVVKDAFLSQHKSIGRKAQEAYLSYRLEQEYSKDDIFQVYLNKIYYSDGVTGIKAAAKYYFNKDLKDLNLAEEAYLAGLPQVPNNYNIYDHPKAAEDRKNTVLYLMHYHKRITDKQWEDAKKIDLKANLVNRTPEERQNIDTNQDSEYNSYVNFVKSELMNNKAFKDENLGNVLQSGIKIYTNMDKDVQKTLQNDVDNGSFYKNKDQQVGATILDSKTGGLVAISGGRDFKDVVNRNQATDPHPTGSSLKPFLAYGPAIENMKWATNHAIQDESSYQVDGSTFRNYDTKSHGTVSIYDALRQSFNIPALKAWQSVKQNAGNDAPKKFAAKLGLNYEGDIGPSEVLGGSASEFSPTQLASAFAAIANGGTYNNAHSIQKVVTRDGETIEYDHTSHKAMSDYTAYMLAEMLKGTFKPYGSAYGHGVSGVNMGAKTGTGTYGAETYSQYNLPDNAAKDVWINGFTPQYTMSVWMGFSKVKQYGENSFVGHSQQEYPQFLYENVMSKISSRDGEDFKRPSSVSGSIPSINVSGSQDNNTTNRSTHGGSDTSANSSGTAQSNNNTRSQQSRNSGGLTGIFN | soluble |
| MRGGMGNMQKMMKQMQKMQKDMAKAQEELAEKVVEGTAGGGMVTVKANGQKEILDVIIKEEVVDPEDIDMLQDLVLAATNEALKKVDEITNETMGQFTKGMNMPGLF | soluble |
| AEPDQAPELNEAQREAVDTIGALSAFQPVLLHGVTGSGKTEVYLHAAARVLQAGRQVLLMVPEINLTPQLEGALRARLEALVGPQGVAILHSGLADGERVQAWARAQRGQARLLLGTRMSIFAPLPELGLIVVDEEHDPSYKQQEGLRYSARDLAIWRARDLDIPVVLGSATP | not soluble |
| MGNRKKKCGIVTFHSSHNYGSVLQAYAMVRVMQKMGLDAELIDFRHPRTTDMYEWRLWSTYKNWKWNLRELVLRGLFSFGKKREQVFSDFIENVLKKSKRVKDKNDIPDIYDILVCGSDQIWNPKASGENDPIYYLDFGTTTCKFSYAASSGSVRFGDENPELFKKYLQNLKSIGVRERFMQEYIKEELGLVSEINPDPTFLLNASEWSEIEKPYKGLPDNYLLIYTIKRPKETINFAHQVAVSLNLPTVQICNDRDLNALMHKDVDYRLMNVSPQQFLWLFHHASFIVTNTFHGNMFSVIYRKNFVHYGINSSDTRISTLHDEIRLKNKIVSSFEIDQRIIDYNLIEENVAYYCKCGLNFIQANINDD | not soluble |
| DDRGDFALVAGDALPQFSVEMSDGGVLNTQSFSGKVGVIVFFHTDCPDCQKELPVIQKVYDTYKENPDVLLSCISRSESGSEVQAYWEKHSFSLPFSAQNDDAVFSLFASHTIPRILITDKEGIIRAVYTDDPLATYQELAKDIDAVL | soluble |
| MAFGWHSMHGSIIWFLQIAQLSTAISHDQNATAVHFLISNLFFLVSTGALWFELCAIFCDSSSSTSILSTSLLMLNYFSLKFSATGERHLVATNIAHIEAHTSIVGFMISLFTPLKETIITKYEMLVRT | soluble |
| MPNNETEASMRNTLFPTLKWSLLVLMTSLLTACGFHLRGDYDIPQELSRMSLTSYDQYSTFTRMVHRQLRLNKIDLQAPAEDLPNLHLLSESTGERTLSLYQNTRAAEIELTFVASYRVTVPELGSRTFTTSVTRSYLDNPLTALAKSVERDMIEDEMRKLAASQIVRQMARLKADFARKTLDDESIEGKGITDYRVDTQEVANPVSTEGSSELEHHHHHH | soluble |
| MSLYNDSLFNAFARSFEARSQHDMSMAEYLESCRSDPMKYANAAERLLAAIGEPQTIDTAKDPRLGRIFLNRTIRTYPAFAGFYGMEETIERIVGFFRHAAQGLEERKQILYLLGPVGGGKSSLAERLKSLMEVHPIYVLKAGDELSPVFESPLSLFDPDQLGPMLEEKYGIPRRRLTGLMSPWCYKRLEAFGGDISQFRVAKIQPSRLRQIAIAKTEPGDENNQDISSLVGKVDIRKLETYAQNDPDAYSYSGGLNRANQGILEFVEMFKAPIKMLHPLLTATQEGNYIGTENIGAIPFTGIILAHSNEAEWASFKANKNNEAFIDRICVIKVPYVLRVTEEQKIYEKLIQGSELASAPCAPSTLETMARFSVMSRLRKHENSTVFGKMRVYDGESLKESDPKARSVQEYRDAAGVDEGMDGVSTRFAFKILAATFNHDPQEVAADAVHLMYALEQSIKREQLPEEVEKRYLEFIKADLAPRYAEFIGNEIQKAYLESYSDYGQNLFDRYVDYADAWIEDQDFKDPDTGQLLDRELLNQELTKIEKPAGIANPKDFRNEVVKFSLRSRAQNGGKNPTWTSYEKIRDVIEKRIFSQVEDLLPVISFGSKKDGETEKKHGEFVARMVERGYTERQVRRLVEWYMRVKQAGEGHHHHHH | soluble |
